Data on three molecules can be found in article PMC7493027, “Mps1 dimerization and multisite interactions with Ndc80 complex enable responsive spindle assembly checkpoint signaling” (Journal of Molecular Cell Biology, 2020).

The target of data set [1] is T1, GST-Hec1^1–196 (UniProt O14777 1-196).
T1 construct: Hec1 (highly expressed in cancer 1)
T1 sequence (looked up): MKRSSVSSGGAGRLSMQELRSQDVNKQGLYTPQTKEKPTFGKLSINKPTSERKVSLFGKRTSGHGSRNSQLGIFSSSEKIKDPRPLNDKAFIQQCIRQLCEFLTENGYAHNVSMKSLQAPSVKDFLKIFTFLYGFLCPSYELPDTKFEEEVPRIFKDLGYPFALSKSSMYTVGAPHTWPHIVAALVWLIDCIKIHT
As to the kind of experiment: pull-down; GST-Hec1^1–196, GST-Hec1^1–196-9D or GST-Nuf2^1–169 on agarose beads as affinity matrices; MBP-tagged Mps1 truncations purified from E. coli; SDS-PAGE and anti-MBP blot. The following applies: both partners purified.

Data set [2] addresses T2, GST-Nuf2^1–169 (UniProt Q9BZD4 1-169).
T2 construct: Nuf2 (nuclear filament-containing protein 2), residues 1-169, with the calponin-homology domain
T2 sequence (looked up): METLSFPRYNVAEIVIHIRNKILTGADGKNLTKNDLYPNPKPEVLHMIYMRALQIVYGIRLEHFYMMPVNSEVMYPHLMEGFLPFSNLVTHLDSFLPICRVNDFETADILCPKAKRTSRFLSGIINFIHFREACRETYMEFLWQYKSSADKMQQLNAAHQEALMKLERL
Described as above. The note with it: both partners purified.

Data set [3] concerns the molecule itself. The data set is described as follows: pull-down; GST-Mps1^C342-WT, GST-Mps1^C342-KD or GST-Mps1^PK-KD on agarose beads; purified 6× His-tagged Mps1^C342-WT or -KD; SDS-PAGE and anti-6× His blot (Figure 3C, Supplementary Figure S4E).

B1: MBP-tagged Mps1 tetratricopeptide repeat domain (TPR, amino acids 62–192) (domain or fragment, human, UniProt P33981 62-192, looked up)
chain: PEDWLSLLLKLEKNSVPLSDALLNKLIGRYSQAIEALPPDKYGQNESFARIQVRFAELKAIQEPDDARDYFQMARANCKKFAFVHISFAQFELSQGNVKKSKQLLQKAVERGAVPLEMLEIALRNLNLQKK
notes: Mps1, human, tetratricopeptide repeat domain, amino acids 62-192; also called Mps1^TPR; source: Escherichia coli, purified
In the case of B1, the binding result in data set [1] and in data set [2] was “binds” throughout.

B2: MBP-tagged Mps1 C-terminal extension (CTE, amino acids 193–300) (domain or fragment, human, UniProt P33981 193-300, looked up)
chain: QLLSEEEKKNLSASTVLTAQESFSGSLGHLQNRNNSCDSRGQTTKARFLYGENMPPQDAEIGYRNSLRQTNKTKQSCPFGRVPVNLLNSPDCDVKTDDSVVPCFMKRQ
notes: Mps1, human, C-terminal extension of N300, amino acids 193-300; source: Escherichia coli, purified
Regarding B2, the binding result in data set [1] and in data set [2] was “binds” throughout.

B3: Mps1^C342-WT fragment (amino acids 516–857), GST-tagged or 6× His-tagged (domain or fragment, human, UniProt P33981 516-857, looked up)
chain: ECISVKGRIYSILKQIGSGGSSKVFQVLNEKKQIYAIKYVNLEEADNQTLDSYRNEIAYLNKLQQHSDKIIRLYDYEITDQYIYMVMECGNIDLNSWLKKKKSIDPWERKSYWKNMLEAVHTIHQHGIVHSDLKPANFLIVDGMLKLIDFGIANQMQPDTTSVVKDSQVGTVNYMPPEAIKDMSSSRENGKSKSKISPKSDVWSLGCILYYMTYGKTPFQQIINQISKLHAIIDPNHEIEFPDIPEKDLQDVLKCCLKRDPKQRISIPELLAHPYVQIQTHPVNQMAKGTTEEMKYVLGQLVGLNSPNSILKAAKTLYEHYSGGESHNSSSSKTFEKKRGKK
notes: Mps1, human, amino acids 516-857: protein kinase domain (516-792) and C-tail (793-857); Two differently tagged copies of one fragment: the GST copy was the bait on beads, the 6× His copy the prey; each chain bears only one of the two tags; also called GST-Mps1^C342-WT; 6× His-Mps1^C342-WT; source: recombinant, purified
As to B3, in data set [3], the binding result is on record as “binds”.
